In the Immune Epitope Database (IEDB):
pIC50, pKd: −log10 of the molar value.

Columns and labels:
HLA-A*01:01 [1] = experiment: IEDB peptide-MHC binding, purified MHC/direct/fluorescence; filed as Kd, often an IC50 or EC50 that approximates it; ≥ and ≤ were set here for values at or beyond the usual limits of such assays
HLA-A*02:01 = experiment: as above
HLA-A*03:01 = experiment: as above; details: source organism: Mycobacterium tuberculosis
HLA-A*11:01 = experiment: as above
HLA-A*26:01 = experiment: as above; details: source organism: Mycobacterium tuberculosis F11
HLA-A*31:01 = experiment: as above
HLA-A*69:01 = experiment: as above
HLA-B*08:02 = experiment: as above; details: source organism: Mycobacterium tuberculosis F11
HLA-B*15:01 = experiment: as above; details: source organism: Mycobacterium tuberculosis
HLA-B*15:17 = experiment: as above
HLA-B*18:01 = experiment: as above
HLA-B*27:05 = experiment: as above
HLA-B*40:01 = experiment: as above
HLA-B*46:01 = experiment: as above; details: source organism: Mycobacterium tuberculosis
HLA-B*48:01 = experiment: as above
HLA-B*51:01 = experiment: as above; details: source organism: Mycobacterium tuberculosis
HLA-B*57:01 = experiment: as above
HLA-B*58:01 = experiment: as above
HLA-B*15:09 = experiment: IEDB peptide-MHC binding, purified MHC/competitive/fluorescence; filed as Kd, often an IC50 or EC50 that approximates it; ≥ and ≤ were set here for values at or beyond the usual limits of such assays
HLA-B*39:01 = experiment: as above
HLA-A*01:01 [2] = experiment: IEDB peptide-MHC binding, purified MHC/competitive/fluorescence; ≥ and ≤ were set here for values at or beyond the usual limits of such assays; details: source organism: Zaire ebolavirus
HLA-A*68:02 = experiment: IEDB peptide-MHC binding, purified MHC/direct/fluorescence; filed as Kd, often an IC50 or EC50 that approximates it; ≥ and ≤ were set here for values at or beyond the usual limits of such assays; details: source organism: Camelpox virus M-96
HLA-B*07:02 = experiment: as above; details: source organism: Camelpox virus M-96
HLA-B*44:02 = experiment: as above; details: source organism: Camelpox virus M-96
[3] = source organism: Mycobacterium tuberculosis
[4] = source organism: Corynebacterium efficiens YS-314
[5] = source organism: Camelpox virus M-96
[6] = source organism: Vaccinia virus Copenhagen

## MPRLSRNAA
HLA-A*01:01 [1]; [3]
  pKd: ≤ 4.70
HLA-A*02:01; [3]
  pKd: ≤ 4.70
HLA-A*03:01
  pKd: ≤ 4.70
HLA-A*11:01; [3]
  pKd: ≤ 4.70
HLA-A*26:01
  pKd: ≤ 4.70
HLA-A*31:01; [3]
  pKd: ≤ 4.70
HLA-A*69:01; [3]
  pKd: ≤ 4.70
HLA-B*08:02
  pKd: ≤ 4.70
HLA-B*15:01
  pKd: ≤ 4.70
HLA-B*15:17; [3]
  pKd: ≤ 4.70
HLA-B*18:01; [3]
  pKd: 5.08
HLA-B*27:05; [3]
  pKd: ≤ 4.70
HLA-B*40:01; [3]
  pKd: ≤ 4.70
HLA-B*46:01
  pKd: ≤ 4.70
HLA-B*48:01; [3]
  pKd: ≤ 4.70
HLA-B*51:01
  pKd: 6.18
HLA-B*57:01; [3]
  pKd: ≤ 4.70
HLA-B*58:01; [3]
  pKd: ≤ 4.70
HLA-B*15:09; [4]
  pKd: ≤ 4.70
HLA-B*39:01; [4]
  pKd: 6.60

## QSEHSFEEM
HLA-A*01:01 [2]
  pIC50: 4.40

## WENGFKVVL
HLA-A*01:01 [1]; [5]
  pKd: ≤ 4.70
HLA-A*02:01; [5]
  pKd: ≤ 4.70
HLA-A*11:01; [5]
  pKd: ≤ 4.70
HLA-A*31:01; [5]
  pKd: ≤ 4.70
HLA-A*68:02
  pKd: ≤ 4.70
HLA-A*69:01; [5]
  pKd: ≤ 4.70
HLA-B*07:02
  pKd: ≤ 4.70
HLA-B*15:17; [5]
  pKd: ≤ 4.70
HLA-B*18:01; [5]
  pKd: ≥ 9.00
HLA-B*27:05; [5]
  pKd: ≤ 4.70
HLA-B*40:01; [5]
  pKd: 8.40
HLA-B*44:02
  pKd: ≤ 4.70
HLA-B*48:01; [5]
  pKd: 7.00
HLA-B*57:01; [5]
  pKd: ≤ 4.70
HLA-B*58:01; [5]
  pKd: ≤ 4.70
HLA-B*15:09; [6]
  pKd: 5.51
HLA-B*39:01; [6]
  pKd: 6.31
